Laboratory results published in patent publication US20090239215A1.

Biological target: MBP-MT2 fusion protein (maltose binding protein fused to two copies of metallothionein), without gold (mouse) (UniProt P02802)
Experiment: STEM mass measurement (PCMass25); expected 260 kDa for the antibody with two MBP-MT2

Sequence of UniProt P02802 (P02802 other isoform, or with tags, fused parts or gaps): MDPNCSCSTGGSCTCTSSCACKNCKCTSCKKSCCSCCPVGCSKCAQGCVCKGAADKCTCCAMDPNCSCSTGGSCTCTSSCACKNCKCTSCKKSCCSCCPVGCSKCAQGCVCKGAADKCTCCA

With “commercially available monoclonal IgG2a MBP antibody (New England Biolabs)” the mean STEM mass of the antibody complex particles was 205 kDa.
